According to patent US20220235118A1 (IMMUNOME, published 2022):

B1: PR194_00232 (antibody, V domains shown)
VH: EVQLVESGGGLVQPGGSLRLSCSASGFTVSSNYMSWVRQAPRKGLEWVSVIYAGGSTFYADSVKGRFTISRDNSKNTLLLQMNSLRAEDTAVYYCARDRGGYLDYWGQGTLVTVSS
VL: DIQMTQSPSSLSASVGDRVTITCRASQGISNYLAWYQQKPGKVPKLLIYAASTLQSGVPSRFSGSGSGTDFTLTISSLQPEDVATYYCQKYNSAPGLTFGGGTKVEIK
notes: also called IMM20190; PR194_00190
B2: PR200_00622 (antibody, V domains shown)
VH: QVQLVESGGGVVQPGRSLRLSCTASGFTFSTYGMHWVRQAPGKGLEWVAVISYDGSSKHYAESVKGRFTISRDNSNNTLYLQMNRLRAEDTAVYYCARDGQPPGWGNYFDYWGQGTLVTVAS
VL: SYVLTQPPSVSVAPGKTARITCGGNGIGSKSVYWYQQKPGQAPEVVVYDDSDRPSGIPERFSGSNSGNTATLTISRVEAGDEADYYCQVWDSSSDPWVFGGGTKLTVL
notes: also called IMM20253; PR200_00253
B3: PR193_00018 (antibody, V domains shown)
VH: EVQLVESGGGLVQPGGSLRLSCSASGFTFSSFWMSWVRQAPGKGLEWVATIREDGSEKYYVDSVKGRFSISRDNAKNSLYLQMNSLRAEDTAVYYCARSKWLRGSFDYWGQGTLVTVSS
VL: NFMLTQPHSVSESPGKTVTISCTRRSGSIASNYVQWYQQRPGSAPTTVIYEDNQRPSGVPDRFSGSIDSSSNSASLTISGLQTEDEADYYCQSYDSSNPPGASWVFGGGTKLTVL
notes: also called IMM20184; IMM200184

Legend:
[1] = target: T1, SARS-CoV-2 Spike S1 domain ΔHV69/70, ΔY144, N501Y, A570D, D614G, P681H (SARS-CoV-2, UniProt P0DTC2 16-685); experiment: HTRF, soluble S1 construct
T1 construct: domain: S1; also called U.K. (B.1.1.7); DHV69/70, DY144, N501Y, A570D, D614G, P681H

[2] = target: T2, SARS-CoV-2 Spike S1 domain K417N, E484K, N501Y, D614G (SARS-CoV-2, UniProt P0DTC2 16-685); experiment: HTRF, soluble S1 construct
T2 construct: domain: S1; also called S. African (K417N, E484K, N501Y, D614G); B.1.351

[3] = target: T3, SARS-CoV-2 Spike S1 domain ΔHV69/70, Y453F, D614G (SARS-CoV-2, UniProt P0DTC2 16-685); experiment: HTRF, soluble S1 construct
T3 construct: domain: S1; also called Denmark (ΔHV69/70, Y453F, D614G); DHV69/70, Y453F, D614G

[4] = target: T4, SARS-CoV-2 Spike S1 domain A222S, D614G (SARS-CoV-2, UniProt P0DTC2 16-685); experiment: HTRF, soluble S1 construct
T4 construct: domain: S1; also called Spanish (A222S, D614G)

[5] = target: T5, SARS-CoV-2 Spike S1 domain D614G (SARS-CoV-2, UniProt P0DTC2 16-685); experiment: HTRF, soluble S1 construct
T5 construct: domain: S1

[6] = target: T6, SARS-CoV-2 Spike RBD K417T, E484K, N501Y (SARS-CoV-2, UniProt P0DTC2 319-541); experiment: HTRF, EC50 of binding, soluble RBD construct
T6 construct: domain: RBD; also called Brazilian (K417T, E484K, N501Y)

[7] = target: T7, SARS-CoV-2 Spike-RBD Omicron variant (SARS-CoV-2, UniProt P0DTC2 319-541); experiment: HTRF binding assay on soluble Spike-RBD B.1.1.529; % binding relative to Ref
T7 construct: domain: RBD; also called soluble RBD domain of the Spike protein containing mutations found in the Omicron variant

[8] = target: T8, SARS-CoV-2 Spike RBD K417N, E484K, N501Y (SARS-CoV-2, UniProt P0DTC2 319-541); experiment: HTRF, soluble RBD construct
T8 construct: domain: RBD; also called S. African partial (K417N, E484K, N501Y)

[9] = target: T6, SARS-CoV-2 Spike RBD K417T, E484K, N501Y; experiment: HTRF, soluble RBD construct

Binder	fold over background [1]	fold over background [2]	fold over background [3]	fold over background [4]	fold over background [5]	binding result [6]	binding result [7]	EC50 [8]	EC50 [9]
B1	3.91 fold over background	1.12 fold over background	8.18 fold over background	8.47 fold over background	4.84 fold over background	no binding	no binding	–	–
B2	5.92 fold over background	6.28 fold over background	7 fold over background	6.64 fold over background	6.1 fold over background	–	–	0.0197 nM	0.0236 nM
B3	4.15 fold over background	4.64 fold over background	5.61 fold over background	5.43 fold over background	4.93 fold over background	–	–	0.0145 nM	0.0183 nM
